From PMC4136841, “Is Thymidine Glycol Containing DNA a Substrate of E. coli DNA Mismatch Repair System?”
Residue numbers refer to the chain shown, from its start.

Molecular target: T1, MutS (Escherichia coli, UniProt P23909 1-853)
T1 sequence: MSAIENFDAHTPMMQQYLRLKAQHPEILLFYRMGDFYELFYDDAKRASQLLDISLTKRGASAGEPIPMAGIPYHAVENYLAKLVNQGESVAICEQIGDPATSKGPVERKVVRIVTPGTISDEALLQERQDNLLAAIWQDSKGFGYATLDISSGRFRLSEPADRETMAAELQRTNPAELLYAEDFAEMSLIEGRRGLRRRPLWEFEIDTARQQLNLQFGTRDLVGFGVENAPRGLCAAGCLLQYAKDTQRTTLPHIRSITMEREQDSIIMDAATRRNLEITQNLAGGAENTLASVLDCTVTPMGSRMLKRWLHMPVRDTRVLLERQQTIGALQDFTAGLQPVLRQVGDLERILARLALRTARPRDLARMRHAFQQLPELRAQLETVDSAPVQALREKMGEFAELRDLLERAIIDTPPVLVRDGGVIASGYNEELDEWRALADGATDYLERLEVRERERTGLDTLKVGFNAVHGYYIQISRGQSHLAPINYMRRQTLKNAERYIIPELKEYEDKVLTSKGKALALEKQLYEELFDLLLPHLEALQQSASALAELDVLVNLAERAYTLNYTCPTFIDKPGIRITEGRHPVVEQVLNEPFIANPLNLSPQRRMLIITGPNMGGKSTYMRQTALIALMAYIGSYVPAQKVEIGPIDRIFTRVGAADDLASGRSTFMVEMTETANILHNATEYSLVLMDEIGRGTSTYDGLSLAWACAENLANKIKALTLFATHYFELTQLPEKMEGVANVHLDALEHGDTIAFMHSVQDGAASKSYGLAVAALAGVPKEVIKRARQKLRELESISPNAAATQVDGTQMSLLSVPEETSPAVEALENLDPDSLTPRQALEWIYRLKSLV
Assay: EMSA (Scatchard); 1 mM ADP, 5 mM Mg2+; EMSA: 20 mM HEPES pH 8.0, 125 mM KCl, 1 mM ADP, 5 mM MgCl2, 1 mg/ml BSA, 9% glycerol, 37 C 20 min (gel at 4 C); fluorescence: 25 mM Tris-HCl pH 7.5, 125 mM KCl, 5 mM MgCl2, 1 mM ADP, 20 C
Conditions: protein: recombinant, tags: His-tag (Ni-NTA purified), chain copies: 2, label: 5'-32P, blunt

B1: duplex IV (A/Tg) (dsDNA)
DNA 1: CAAGCCTATGCCCTCAGCACCCAAGGTGCC
DNA 2: GGCACCTTGGGTGCTGAGGGCATAGGCTTG
modifications: thymidine glycol (5R,6S) at T7 of strand 2
Kd (strand 1 A24 : strand 2 Tg7): 25 ± 3 nM

B2: duplex III (G/Tg) (dsDNA)
DNA 1: B1 DNA 1 with A24G
DNA 2: B1 DNA 2
modifications: thymidine glycol (5R,6S) at T7 of strand 2
Kd (strand 1 G24 : strand 2 Tg7): 44 ± 2.3 nM

B3: duplex I (G/C) (dsDNA)
DNA 1: B1 DNA 1 with A24G
DNA 2: B1 DNA 2 with T7C
Kd: 32 ± 3.3 nM

B4: duplex II (G/T) (dsDNA)
DNA 1: B1 DNA 1 with A24G
DNA 2: B1 DNA 2
Kd (G/T mismatch strand 1 G24 : strand 2 T7): 7 ± 1.5 nM
